Measurements: US10227388B2, “Peptides and combination of peptides for use in immunotherapy against non-small cell lung cancer and other cancers” (immatics biotechnologies GmbH, priority 2015, dated 2019)

Molecular target: HLA-A*02:01 (Homo sapiens, UniProt P04439, D140Y/D185E/D98H/E176V/E277Q/G131W/G231S/I119V/I121R/I166T/I218V/L300P/L318F/N151K/N90K/P208A/P217A/Q86G/Q94H/R138H/R169H/T345S)
Assay: MHC binding assay (UV-ligand exchange, ELISA, peptide exchange yield)
Conditions: binding of HLA-class I restricted peptides to HLA-A*02:01
Procedure, shortened: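 Peptide–HLA-A*02:01 complexes made by UV-ligand exchange of a UV-cleavable peptide for the test peptide. Exchange yield measured by ELISA: 100-fold diluted monomers captured on streptavidin, 1 h at 37° C., detected with HRP anti-β2m and TMB, absorbance at 450 nm.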

Peptide exchange (MHC class I binding score, peptide exchange yield)	Substance
″+++″ (≥50% = +++)	254 (TLLAFIMEL; listed as Homo sapiens) [compound 254]
″++″ (≥20% = ++)	261 (YVLEFLEEI; listed as Homo sapiens) [compound 261]
″++″ (≥20% = ++)	265 (LLFGGTKTV; listed as Homo sapiens) [compound 265]
″+++″ (≥50% = +++)	266 (KITDTLIHL; listed as Homo sapiens) [compound 266]
″+++″ (≥50% = +++)	267 (ALQDFLLSV; listed as Homo sapiens) [compound 267]
″++″ (≥20% = ++)	269 (RVLEVGALQAV; listed as Homo sapiens) [compound 269]
″+++″ (≥50% = +++)	272 (ALGNTVPAV; listed as Homo sapiens) [compound 272]
″++″ (≥20% = ++)	273 (NLFQSVREV; listed as Homo sapiens) [compound 273]
″++″ (≥20% = ++)	278 (QLLDVVLTI; listed as Homo sapiens) [compound 278]
″++″ (≥20% = ++)	279 (ALWGGTQPLL; listed as Homo sapiens) [compound 279]
″+++″ (≥50% = +++)	280 (VLPDPEVLEAV; listed as Homo sapiens) [compound 280]
″+++″ (≥50% = +++)	281 (ILRESTEEL; listed as Homo sapiens) [compound 281]
″+++″ (≥50% = +++)	282 (LLADVVPTT; listed as Homo sapiens) [compound 282]
″+++″ (≥50% = +++)	284 (ILLSQTTGV; listed as Homo sapiens) [compound 284]
″+++″ (≥50% = +++)	288 (NLINEINGV; listed as Homo sapiens) [compound 288]
″++++″ (≥75% = ++++)	289 (VLLEIEDLQV; listed as Homo sapiens) [compound 289]
″+++″ (≥50% = +++)	295 (VLDRESPNV; listed as Homo sapiens) [compound 295]
″+++″ (≥50% = +++)	298 (VMITKLVEV; listed as Homo sapiens) [compound 298]
″+++″ (≥50% = +++)	300 (ALLGQTFSL; listed as Homo sapiens) [compound 300]
″+++″ (≥50% = +++)	301 (FLVEDLVDSL; listed as Homo sapiens) [compound 301]
″++++″ (≥75% = ++++)	303 (AILPQLFMV; listed as Homo sapiens) [compound 303]
″++++″ (≥75% = ++++)	310 (FLVDTPLARA; listed as Homo sapiens) [compound 310]
″+++″ (≥50% = +++)	311 (RLYTGMHTV; listed as Homo sapiens) [compound 311]
″++++″ (≥75% = ++++)	321 (GLFEDVTQPGILL; listed as Homo sapiens) [compound 321]
″+++″ (≥50% = +++)	328 (ALNDQVFEI; listed as Homo sapiens) [compound 328]
″++++″ (≥75% = ++++)	329 (FLVTLNNVEV; listed as Homo sapiens) [compound 329]

Continued, substance first:

Substance	Peptide exchange (MHC class I binding score, peptide exchange yield)
253 (GLDAATATV; listed as Homo sapiens) [compound 253]	″++″ (≥20% = ++)
255 (VLASYNLTV; listed as Homo sapiens) [compound 255]	″+++″ (≥50% = +++)
256 (FLPPEHTIVYI; listed as Homo sapiens) [compound 256]	″+++″ (≥50% = +++)
257 (SIFSAFLSV; listed as Homo sapiens) [compound 257]	″+++″ (≥50% = +++)
258 (ELAERVPAI; listed as Homo sapiens) [compound 258]	″++″ (≥20% = ++)
262 (LLWGDLIWL; listed as Homo sapiens) [compound 262]	″+++″ (≥50% = +++)
263 (LLVSNLDFGV; listed as Homo sapiens) [compound 263]	″+++″ (≥50% = +++)
264 (SLQEQLHSV; listed as Homo sapiens) [compound 264]	″+++″ (≥50% = +++)
270 (LLLDEEGTFSL; listed as Homo sapiens) [compound 270]	″++″ (≥20% = ++)
271 (LVYPLELYPA; listed as Homo sapiens) [compound 271]	″+++″ (≥50% = +++)
274 (SLLFSLFEA; listed as Homo sapiens) [compound 274]	″++″ (≥20% = ++)
275 (YLVYILNEL; listed as Homo sapiens) [compound 275]	″++″ (≥20% = ++)
276 (ALFTFSPLTV; listed as Homo sapiens) [compound 276]	″+++″ (≥50% = +++)
277 (LLPPLESLATV; listed as Homo sapiens) [compound 277]	″++″ (≥20% = ++)
285 (QLLHVGVTV; listed as Homo sapiens) [compound 285]	″+++″ (≥50% = +++)
286 (YLFPGIPEL; listed as Homo sapiens) [compound 286]	″+++″ (≥50% = +++)
287 (FLNEFFLNV; listed as Homo sapiens) [compound 287]	″+++″ (≥50% = +++)
296 (FMEGAIIYV; listed as Homo sapiens) [compound 296]	″+++″ (≥50% = +++)
297 (VLADIELAQA; listed as Homo sapiens) [compound 297]	″+++″ (≥50% = +++)
299 (YLLETSGNL; listed as Homo sapiens) [compound 299]	″+++″ (≥50% = +++)

Substance	Peptide exchange (MHC class I binding score, peptide exchange yield)
302 (ALLQEGEVYSA; listed as Homo sapiens) [compound 302]	″+++″ (≥50% = +++)
304 (MTLGQIYYL; listed as Homo sapiens) [compound 304]	″+++″ (≥50% = +++)
305 (SIANFSEFYV; listed as Homo sapiens) [compound 305]	″++++″ (≥75% = ++++)
306 (ALVNVQIPL; listed as Homo sapiens) [compound 306]	″+++″ (≥50% = +++)
307 (ALPVSLPQI; listed as Homo sapiens) [compound 307]	″+++″ (≥50% = +++)
308 (SQYSGQLHEV; listed as Homo sapiens) [compound 308]	″+++″ (≥50% = +++)
309 (GLFDGVPTTA; listed as Homo sapiens) [compound 309]	″+++″ (≥50% = +++)
312 (IISDLTIAL; listed as Homo sapiens) [compound 312]	″+++″ (≥50% = +++)
313 (VLFDDELLMV; listed as Homo sapiens) [compound 313]	″+++″ (≥50% = +++)
314 (ALIAEGIALV; listed as Homo sapiens) [compound 314]	″+++″ (≥50% = +++)
315 (YLQDVVEQA; listed as Homo sapiens) [compound 315]	″+++″ (≥50% = +++)
316 (ILLERLWYV; listed as Homo sapiens) [compound 316]	″+++″ (≥50% = +++)
317 (SLAALVVHV; listed as Homo sapiens) [compound 317]	″+++″ (≥50% = +++)
318 (GLINTGVLSV; listed as Homo sapiens) [compound 318]	″++″ (≥20% = ++)
320 (KMFEFVEPLL; listed as Homo sapiens) [compound 320]	″++++″ (≥75% = ++++)
322 (TLMTSLPAL; listed as Homo sapiens) [compound 322]	″+++″ (≥50% = +++)
324 (FLYDEIEAEV; listed as Homo sapiens) [compound 324]	″+++″ (≥50% = +++)
325 (FIMPATVADATAV; listed as Homo sapiens) [compound 325]	″+++″ (≥50% = +++)
326 (FLPEALDFV; listed as Homo sapiens) [compound 326]	″+++″ (≥50% = +++)
327 (GLAPFTEGISFV; listed as Homo sapiens) [compound 327]	″+++″ (≥50% = +++)
